Reference: PMC3105425 (Nucleic Acids Research, 2011)

B1: DnaA protein (natural protein)
chain: MSLSLWQQCLARLQDELPATEFSMWIRPLQAELSDNTLALYAPNRFVLDWVRDKYLNNINGLLTSFCGADAPQLRFEVGTKPVTQTPQAAVTSNVAAPAQVAQTQPQRAAPSTRSGWDNVPAPAEPTYRSNVNVKHTFDNFVEGKSNQLARAAARQVADNPGGAYNPLFLYGGTGLGKTHLLHAVGNGIMARKPNAKVVYMHSERFVQDMVKALQNNAIEEFKRYYRSVDALLIDDIQFFANKERSQEEFFHTFNALLEGNQQIILTSDRYPKEINGVEDRLKSRFGWGLTVAIEPPELETRVAILMKKADENDIRLPGEVAFFIAKRLRSNVRELEGALNRVIANANFTGRAITIDFVREALRDLLALQEKLVTIDNIQKTVAEYYKIKVADLLSKRRSRSVARPRQMAMALAKELTNHSLPEIGDAFGGRDHTTVLHACRKIEQLREESHDIKEDFSNLIRTLSS
B2: DnaAΔ220-294 lacking residues 220–294 (natural protein)
chain: MSLSLWQQCLARLQDELPATEFSMWIRPLQAELSDNTLALYAPNRFVLDWVRDKYLNNINGLLTSFCGADAPQLRFEVGTKPVTQTPQAAVTSNVAAPAQVAQTQPQRAAPSTRSGWDNVPAPAEPTYRSNVNVKHTFDNFVEGKSNQLARAAARQVADNPGGAYNPLFLYGGTGLGKTHLLHAVGNGIMARKPNAKVVYMHSERFVQDMVKALQNNAIEPPELETRVAILMKKADENDIRLPGEVAFFIAKRLRSNVRELEGALNRVIANANFTGRAITIDFVREALRDLLALQEKLVTIDNIQKTVAEYYKIKVADLLSKRRSRSVARPRQMAMALAKELTNHSLPEIGDAFGGRDHTTVLHACRKIEQLREESHDIKEDFSNLIRTLSS
B3: DnaAΔ129 lacking the N-terminal 129 residues (domain or fragment)
chain: SNVNVKHTFDNFVEGKSNQLARAAARQVADNPGGAYNPLFLYGGTGLGKTHLLHAVGNGIMARKPNAKVVYMHSERFVQDMVKALQNNAIEEFKRYYRSVDALLIDDIQFFANKERSQEEFFHTFNALLEGNQQIILTSDRYPKEINGVEDRLKSRFGWGLTVAIEPPELETRVAILMKKADENDIRLPGEVAFFIAKRLRSNVRELEGALNRVIANANFTGRAITIDFVREALRDLLALQEKLVTIDNIQKTVAEYYKIKVADLLSKRRSRSVARPRQMAMALAKELTNHSLPEIGDAFGGRDHTTVLHACRKIEQLREESHDIKEDFSNLIRTLSS

Target: ribosomal protein L2 (E. coli, UniProt P60422 1-273)
Test: ELISA

Binder | binding result | fold reduction of the interaction against wild-type DnaA
B1 | binds | –
B2 | binds | –
B3 | – | ~4 fold
